{"source": "paper PMC7969025", "key": {"[1]": {"molecular_target": "T1, P54nrb (UniProt Q15233 1-471)", "T1 sequence": "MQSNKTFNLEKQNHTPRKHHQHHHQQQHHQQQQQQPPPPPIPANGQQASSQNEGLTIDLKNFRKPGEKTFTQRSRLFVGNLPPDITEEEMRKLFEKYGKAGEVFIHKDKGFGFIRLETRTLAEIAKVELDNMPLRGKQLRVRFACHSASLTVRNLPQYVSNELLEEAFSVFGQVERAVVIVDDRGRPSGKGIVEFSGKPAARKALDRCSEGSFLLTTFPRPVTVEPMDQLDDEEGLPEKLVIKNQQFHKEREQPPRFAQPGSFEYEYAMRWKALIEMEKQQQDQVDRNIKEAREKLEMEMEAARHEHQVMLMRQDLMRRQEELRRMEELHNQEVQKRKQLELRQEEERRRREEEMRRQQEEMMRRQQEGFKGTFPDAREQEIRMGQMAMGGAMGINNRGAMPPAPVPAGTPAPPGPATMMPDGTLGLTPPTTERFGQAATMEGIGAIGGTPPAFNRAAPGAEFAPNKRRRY", "assay": "thermal shift"}, "[2]": {"molecular_target": "T2, H1-NTD (hybrid binding domain) (UniProt O60930 27-73)", "T2 chain": "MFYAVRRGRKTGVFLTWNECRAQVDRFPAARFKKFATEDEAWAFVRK", "assay": "thermal shift"}}, "data": [{"binder": "CTGCTAGCCTCTGGATTTGA (XNA, PS; 5-10-5 2'-F gapmer)", "note": "[404130 5-10-5 F PS-ASO]", "values": [{"measurement": "binding result", "setting": "[1]", "value": "binds"}]}, {"binder": "GCTAGCCTCTGGATTT (XNA, PS; 3-10-3 2'-F gapmer)", "note": "[760614 3-10-3 F PS-ASO]", "values": [{"measurement": "binding result", "setting": "[2]", "value": "binds"}]}]}
